Target: recombinant HIV-1 trimeric spike (BG505 SOSIP.664) (HIV-1)

B1: ODIN-1 (VHH-72.18 with UL-CDR3 from NC-Cow1 bovine IgG in FR2 loop) (bispecific antibody, V domains shown)
VH: MGWFRQTNKKECPEDYTYNPRCPQQYGWSDCDCMGDRFGGYCRQDGCSNYIHRSTREFVATISWSGGSTYYTDSVKGRFTISRDNAKNTVYLQMNSLKPDDTAVYYCAAAGLGTVVSEWDYDYDYWGQGTQVTVSS
Kd: 30 nM

From US20250228955A1
